Source: patent US20240059799A1 (Pfizer, published 2024)

B1: p40TL1A-0033 (bispecific antibody, human IgG1, kappa)
chain 1: not shown
chain 2: QVQLVQSGAEVKKPGASVKVSCKASGYDYTYYGISWVRQAPGQGLEWMGWISTYNTGTHYAPSLQGRVTMTTDTSTSTAYMELRSLRSDDTAVYYCARESYYGSGAFRGGMDVWGQGTTVTVSSASTKGPSVFPLAPSSKSTSGGTAALGCLVKDYFPEPVTVSWNSGALTSGVHTFPAVLQSSGLYSLSSVVTVPSSSLGTQTYICNVNHKPSNTKVDKKVEPKSC
heavy: EVQLVQSGAEVKKPGESLKISCKGSGYSFTTYWLGWVRQMPGKGLDWIGIMSPVDSDIRYSPSFQGQVTMSVDKSITTAYLQWNSLKASDTAMYYCARRRPGQGYFDFWGQGTLVTVSSASTKGPSVFPLAPSSKSTSGGTAALGCLVKDYFPEPVTVSWNSGALTSGVHTFPAVLQSSGLYSLSSVVTVPSSSLGTQTYICNVNHKPSNTKVDKKVEPKSCDKTHTCPPCPAPEAAGAPSVFLFPPKPKDTLMISRTPEVTCVVVDVSHEDPEVKFNWYVDGVEVHNAKTKPREEQYNSTYRVVSVLTVLHQDWLNGKEYKCKVSNKALPAPIEKTISKAKGQPREPQVCTLPPSREEMTKNQVSLWCLVKGFYPSDIAVEWESNGQPENNYKTTPPVLDSDGSFFLYSKLTVDKSRWQQGNVFSCSVLHEALHSHYTQKSLSLSPGK
light: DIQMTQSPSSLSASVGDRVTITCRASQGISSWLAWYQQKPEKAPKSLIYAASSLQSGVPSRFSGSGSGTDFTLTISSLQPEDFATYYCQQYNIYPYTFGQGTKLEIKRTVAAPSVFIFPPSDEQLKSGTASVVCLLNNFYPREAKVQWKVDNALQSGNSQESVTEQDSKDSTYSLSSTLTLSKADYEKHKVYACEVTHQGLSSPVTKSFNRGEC
notes: KiH modified-Fd bispecific: TL1A VL-CL-Fc (hole), TL1A mFd, p40 HC (knob), p40 LC; LS
B2: p40TL1A-0033 bispecific antibody (bispecific antibody, human IgG1, kappa)
heavy: B1 heavy
light: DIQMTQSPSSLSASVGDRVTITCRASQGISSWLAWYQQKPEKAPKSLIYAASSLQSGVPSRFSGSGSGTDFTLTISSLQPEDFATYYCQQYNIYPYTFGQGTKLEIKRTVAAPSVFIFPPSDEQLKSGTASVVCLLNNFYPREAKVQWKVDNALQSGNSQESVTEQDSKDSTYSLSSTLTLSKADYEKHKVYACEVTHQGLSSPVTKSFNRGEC
chain 1: not shown
chain 2: B1 chain 2
notes: Single cell KiH, modified Fd format; IgG1 effector-function-minimized Fc with LS mutations

What was measured:
rabbit IL-23 = target: T1, rabbit IL-23 (rabbit); assay: SPR, antibody captured by anti-human Fc, cytokine injected
T1 chain 1: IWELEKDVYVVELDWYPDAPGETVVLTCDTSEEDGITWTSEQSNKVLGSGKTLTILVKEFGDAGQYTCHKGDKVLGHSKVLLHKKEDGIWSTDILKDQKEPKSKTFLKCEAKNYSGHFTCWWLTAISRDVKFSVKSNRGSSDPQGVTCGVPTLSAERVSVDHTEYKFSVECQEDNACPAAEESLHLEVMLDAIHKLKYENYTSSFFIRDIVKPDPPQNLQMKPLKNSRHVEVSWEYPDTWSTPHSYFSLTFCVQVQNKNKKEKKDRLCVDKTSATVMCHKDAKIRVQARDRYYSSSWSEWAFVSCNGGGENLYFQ
T1 chain 2: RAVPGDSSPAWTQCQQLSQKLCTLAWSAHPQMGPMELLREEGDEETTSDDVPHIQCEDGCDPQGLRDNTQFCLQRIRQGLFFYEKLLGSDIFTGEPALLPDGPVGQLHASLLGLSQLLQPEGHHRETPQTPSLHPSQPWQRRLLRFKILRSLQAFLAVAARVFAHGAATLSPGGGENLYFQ
Procedure: (§1) In order to determine binding to TL1A, kinetic assays were conducted at 37° C. using a collection rate of 10 Hz on a Biacore™ T200 instrument (GE Healthcare). […] For the analysis of the p40 binding arm, kinetic assays were conducted at 37° C. using a collection rate of 10 Hz on a Biacore™ 8 K+ instrument (GE Healthcare).

rat IL-12 = target: T2, rat IL-12 (rat, UniProt P43432 23-335; Q9R103 23-215, limits assumed); assay: as above
T2 chain 1: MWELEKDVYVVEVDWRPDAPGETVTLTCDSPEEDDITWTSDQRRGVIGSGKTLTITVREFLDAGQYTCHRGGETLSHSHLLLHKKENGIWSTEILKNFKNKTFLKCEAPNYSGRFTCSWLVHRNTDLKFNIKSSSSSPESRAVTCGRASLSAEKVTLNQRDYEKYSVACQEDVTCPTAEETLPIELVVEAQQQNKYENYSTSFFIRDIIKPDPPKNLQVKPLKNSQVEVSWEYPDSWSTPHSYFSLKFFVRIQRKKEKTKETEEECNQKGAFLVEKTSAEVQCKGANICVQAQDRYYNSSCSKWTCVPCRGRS
T2 chain 2: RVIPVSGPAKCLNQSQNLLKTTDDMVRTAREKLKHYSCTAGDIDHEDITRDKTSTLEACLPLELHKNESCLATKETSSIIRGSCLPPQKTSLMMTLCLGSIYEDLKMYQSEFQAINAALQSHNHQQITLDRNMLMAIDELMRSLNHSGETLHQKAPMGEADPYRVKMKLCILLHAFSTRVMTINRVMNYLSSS
Procedure: as §1

mouse IL-23 = target: T3, mouse IL-23 (mouse, UniProt P43432 23-335; Q9EQ14 22-196); assay: as above
T3 sequence 1: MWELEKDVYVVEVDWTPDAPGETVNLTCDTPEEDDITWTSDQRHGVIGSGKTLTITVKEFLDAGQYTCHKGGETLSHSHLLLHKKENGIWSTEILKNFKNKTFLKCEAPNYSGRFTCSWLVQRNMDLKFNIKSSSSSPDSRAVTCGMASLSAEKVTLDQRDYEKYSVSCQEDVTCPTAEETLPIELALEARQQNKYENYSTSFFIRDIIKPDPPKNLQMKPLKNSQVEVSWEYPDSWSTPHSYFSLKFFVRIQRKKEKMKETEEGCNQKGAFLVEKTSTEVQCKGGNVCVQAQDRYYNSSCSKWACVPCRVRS
T3 sequence 2: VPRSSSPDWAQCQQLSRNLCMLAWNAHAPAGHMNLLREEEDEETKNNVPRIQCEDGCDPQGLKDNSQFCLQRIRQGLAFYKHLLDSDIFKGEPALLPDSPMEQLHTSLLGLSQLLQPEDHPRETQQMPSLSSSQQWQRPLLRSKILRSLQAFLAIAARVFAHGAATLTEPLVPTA
Procedure: as §1

rabbit IL-12 = target: T4, rabbit IL-12 (rabbit); assay: as above
T4 chain 1: T1 chain 1
T4 chain 2: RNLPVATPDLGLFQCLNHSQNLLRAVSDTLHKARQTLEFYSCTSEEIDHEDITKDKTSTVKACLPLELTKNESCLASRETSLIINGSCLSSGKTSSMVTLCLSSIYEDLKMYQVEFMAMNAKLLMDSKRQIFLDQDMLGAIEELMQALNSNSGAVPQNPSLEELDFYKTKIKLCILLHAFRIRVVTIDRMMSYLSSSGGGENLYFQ
Procedure: as §1

mouse IL-12 = target: T5, mouse IL-12 (mouse, UniProt P43432 23-335; P43431 23-215); assay: as above
T5 sequence 1: T3 sequence 1
T5 sequence 2: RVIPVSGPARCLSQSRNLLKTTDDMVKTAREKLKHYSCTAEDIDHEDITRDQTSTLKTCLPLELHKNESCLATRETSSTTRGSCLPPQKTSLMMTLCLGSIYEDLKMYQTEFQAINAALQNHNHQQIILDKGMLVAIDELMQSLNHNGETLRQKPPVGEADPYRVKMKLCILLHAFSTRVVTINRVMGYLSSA
Procedure: as §1

recombinant human TL1A = target: T6, recombinant human TL1A (human, UniProt O95150 71-251); assay: SPR, 37 C; biotinylated human TL1A captured on Biotin CAPture chip, antibody injected
T6 construct: TL1A is described as a homotrimer; Biotinylated for SPR capture; also called TNFSF15
T6 chain: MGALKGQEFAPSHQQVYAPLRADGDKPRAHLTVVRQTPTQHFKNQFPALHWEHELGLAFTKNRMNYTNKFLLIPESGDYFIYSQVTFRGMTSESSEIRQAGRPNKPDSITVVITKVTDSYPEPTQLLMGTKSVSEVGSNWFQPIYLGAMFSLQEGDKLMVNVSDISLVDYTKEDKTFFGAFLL
Procedure: SPR was utilized to determine if the affinity constants of each arm of the bispecific variants binding human IL-23, containing the p40 subunit, and human TL1A were the same for each bispecific approach. For the analysis of the p40 binding arm, kinetic assays were conducted at 37° C. using a collection rate of 10 Hz on a Biacore™ 8 K+ instrument (GE Healthcare). An anti-human IgG antibody (anti-human Fc, GE Healthcare, 22-0648-88) was amine coupled to all four flow cells of a carboxymethylated dextran coated sensor chip (GE Healthcare,) using the manufacturer's recommended protocol. […] For the analysis of the TL1A binding arm, kinetic assays were conducted at 37° C. using a collection rate of 10 Hz on a Biacore™ T200 instrument (GE Healthcare).
As described above in EXAMPLE 12, SPR was utilized to determine if the affinity constants of each arm of the bispecific variants binding human IL-23, containing the p40 subunit, and human TL1A were the same for each bispecific variant.

Binder | binding result (rabbit IL-23) | binding result (rat IL-12) | binding result (mouse IL-23) | binding result (rabbit IL-12) | binding result (mouse IL-12) | Kd (recombinant human TL1A) | koff (recombinant human TL1A) | kon (recombinant human TL1A)
B1 | no binding (tested: 200 nM) | no binding (tested: 200 nM) | no binding (tested: 200 nM) | no binding (tested: 200 nM) | no binding (tested: 200 nM) | – | – | –
B2 | – | – | – | – | – | 0.622 nM | 8.21e-05 s⁻¹ | 132000 M⁻¹ s⁻¹
